{
  "source": "patent US20160201045A1",
  "about": "“Endo-xylanase and Coding Gene and Use Thereof” (SHANGHAI INSTITUTES FOR BIOLOGICAL SCIENCES CHINESE ACADEMY …, priority 2013, published 2016)",
  "molecules": {"B1": {"name": "Xyl7: endo-1,4-β-xylanase of 505 amino acids, SEQ ID NO:2, from termite gut metagenome, expressed in E. coli with His tag (protein)", "chain": "MKKLIALSFIAAFFAPLFAQGPTWTTSTIQAYNGYDYELWNQNNAGTVSMKLTGDNGSGASAVGGTFTATWSNTQNVLFRSGKKWGSSSNQNHTQIGNMSINFAATWSSTDNVKMLGVYGWAYFTSANVPTKQENGTNASFSNQIEYYIIQDRGSYNPASGGTNAKKYGSATIDGIAYDFYVCDRINQPMLTGNGNFKQFFSVPQSASAHRTSGTISVSQHFNKWHELGMKMDGPLYEVAMKVESYTGSGSSNGSATVTKNLLTIGGTTPTPSSNSGGTTSSSSRASSSSRASSSSNAAVQATTCKTPLITYPTSTVPSDPYTACFKYTDDKCYVCKVENEGEFEGNMNTCGSGWVWDGTQIDNNLRDGYWYQEVPCPAGSSSSRSSSSSVAVSSSSRSSSSSVAASSSSRSSSSSASVSSSSEETPIRVLHTIPSKFRVRSLNNGALQIESNADVVLYLYDTKGKMAQKIEAPTGSSIVKLSVPAGIYIVRNVQTKEKLRVMVR", "modifications": "His tag; Intestinal tract metagenome of termite"}},
  "format_in_all_cases": "biochemical",
  "key": {"[1]": {"assay": "Detection on the optimum temperature", "experimental": "(§1) In a 100 μl reaction system, birch xylan was added to a final concentration of 1% (w/w), and Na2HPO4/NaH2PO4 buffer (pH7.0) was added to a final concentration of 100 mM. A suitable amount of enzyme solution diluted by the abovementioned buffer was added to the reaction system for reaction at 50[…] for 10 minutes. 100 μl DNS were added to stop the reaction. For the control, 100 μl DNS were firstly added to the above reaction system before adding the enzyme solution. The reaction mixtures were subjected to a boiled water bath for 5 minutes to develop color. Absorbance value at 540 nm was detected by a microplate reader. After subtracting the absorbance value of the control from that of the sample, the enzymatic activity unit (U) was calculated based on the standard curve.\nEnzymatic activity was detected according the above standard enzymatic activity detection steps at pH 7.0 and a temperature in the range of 25-80° C. The optimum temperature of Xyl7 was in the range of 50-55° C., with an activity at 50[…] slightly higher than that at 55[…]. Thus, the specific activity value of the enzyme at 50[…] was used as a reference value and its relative activity was defined as 100%. The relative activity of the enzyme at each temperature was a ratio between the specific activity value of the enzyme at each temperature and the reference value."}, "[2]": {"assay": "Residual activity under feed additive conditions (acidic pH, 37° C.)", "settings": "pH 4-5, 37° C., 15-60 minutes", "experimental": "as §1\nAs a feed additive, xylanase is required to retain its enzymatic activity in a pH environment of about 4 due to the acidic environment in the stomach of livestock, such as pig, and retain its enzymatic activity in a pH environment of about 6 due to the weak acidic environment in the digestive tract of chicken. Therefore, Xyl7 was tested for its residual enzymatic activity after treated in pH4 or pH5 at a 37° C. bath for 15, 30, 45 and 60 minutes. The residual enzymatic activity was a ratio between the specific activity of the enzyme obtained after various treatments and that of the un-treated enzyme."}, "[3]": {"assay": "Detection of the optimum pH", "experimental": "as §1\nBuffers having different pH values in the range of 3.5-10 in a gradient of 0.5 unit were prepared, wherein NaAc with a final concentration of 100 mM was used to prepare the buffers having a pH in the range of 3.5-6.0, Na2HPO4/NaH2PO4 with a final concentration of 100 mM was used to prepare the buffers having a pH in the range of 6.0-8.0, and Tris-HCl with a final concentration of 100 mM was used to prepare the buffers having a pH in the range of 8.0-10.0. The enzyme solution was added into each pH buffer system and the enzymatic activity was tested according to the above standard enzymatic activity detection steps. […]"}, "[4]": {"assay": "Screening of mutant clones for improved thermal stability (96-well, heat treatment, DNS)", "settings": "52.5° C. water bath for two hours", "experimental": "Transformants were picked up by sterile toothpick to a LB liquid culture containing antibiotic and IPTG (in a final concentration of 1 mM) contained within the wells of a 96-well plate and cultured overnight at 37° C. and 200 rpm. Thallus was collected by centrifugation. 100 ul buffers having the optimum reaction pH were added to re-suspend the thallus. Clone from each well was divided into a control group and a treatment group, with 50 ul for each well. The control group was stored at 4° C. The treatment group was treated in a water bath having a suitable temperature for 2 hours. After adding 2% xylan to each well, the mixture was allowed to react under 37° C. for 1 hour. Enzymatic activity was detected according to the DNS method. After treatment, the treatment group of the wild type clone retained an enzymatic activity which was about 10˜20% of its control group. […] The thermal stability of finally obtained mutants was tested according to the method described in Example 3. The overnight thallus was re-suspended and divided into two groups, which were the control and treatment groups, respectively. […] Then the enzymatic activity was detected. The residual enzymatic activity of the treatment group was calculated as a percentage of the enzymatic activity of the treatment group in relative to that of the control group. […]"}},
  "data": [
    {"molecule": "B1", "values": [
      {"measurement": "optimum temperature", "setting": "[1]; pH 7.0, 25-80° C. tested", "value": "50-55 °C"},
      {"measurement": "retained activity in the range of 30-60° C.", "setting": "[1]; pH 7.0, % of the highest activity (50)", "value": "≥ 50", "unit": "%"},
      {"measurement": "residual enzymatic activity in acidic environment", "setting": "[2]", "value": "retain a sufficiently high enzymatic activity"},
      {"measurement": "optimum pH", "setting": "[3]; buffers pH 3.5-10, 50", "value": 7.0},
      {"measurement": "relative activity in the pH range of from 5.5 to 10", "setting": "[3]; relative to activity at pH7.0, 50", "value": "≥ 50", "unit": "%"},
      {"measurement": "enzymatic activity of the treatment group as % of the control group", "setting": "[4]", "value": "10˜20%"}
    ]}
  ]
}
